# Assay results as given in publication PMC11697113, “The Hsc70 system maintains the synaptic SNARE protein SNAP-25 in an assembly-competent state and delays its aggregation [drawing 1]” (The Journal of Biological Chemistry, 2024).
# Target: heat shock cognate 70 (Hsc70), human constitutively expressed Hsp70, wild type (human) (UniProt P11142)
# Sequence (P11142 whole entry): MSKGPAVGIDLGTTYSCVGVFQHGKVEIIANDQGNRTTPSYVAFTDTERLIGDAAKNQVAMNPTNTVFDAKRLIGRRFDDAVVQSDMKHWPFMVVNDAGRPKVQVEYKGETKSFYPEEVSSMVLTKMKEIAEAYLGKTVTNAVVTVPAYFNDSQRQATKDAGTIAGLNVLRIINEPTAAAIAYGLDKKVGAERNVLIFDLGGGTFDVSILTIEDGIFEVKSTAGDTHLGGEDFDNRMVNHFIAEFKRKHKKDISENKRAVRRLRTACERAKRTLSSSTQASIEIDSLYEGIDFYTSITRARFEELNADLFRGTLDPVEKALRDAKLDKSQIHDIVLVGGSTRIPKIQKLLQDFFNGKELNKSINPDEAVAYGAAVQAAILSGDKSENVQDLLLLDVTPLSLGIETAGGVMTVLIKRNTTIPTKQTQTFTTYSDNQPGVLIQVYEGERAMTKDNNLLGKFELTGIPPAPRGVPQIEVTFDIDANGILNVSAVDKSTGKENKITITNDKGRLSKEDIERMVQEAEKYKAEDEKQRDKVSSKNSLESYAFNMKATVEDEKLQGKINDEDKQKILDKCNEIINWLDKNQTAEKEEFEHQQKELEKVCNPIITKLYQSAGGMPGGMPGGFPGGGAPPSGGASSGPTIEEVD
substance,measurement,value
"SNAP-25 (SNAP-25B, Cys-less CS mutant), His tag cleaved (from UniProt P60880-1 1-206) (natural protein)","lag time of SNAP-25 aggregation (50 μM SNAP-25, optical density at 360 nm, 37 °C) in the presence of Hsc70 (5 μM); ∼38 h without Hsc70",65 h
